Key:
[1] = GES enzyme assay (conversion of [1-3H]-GDP, hexane-extractable product counted by scintillation); type: biochemical; details: GES purification from gland of basil “Sweet Dani” cultivar
Description: GES activity was assayed by incubating 5 μl of the enzyme sample in a final volume of 50 μl buffer containing 50 mM Hepes-KOH, pH 8.0, 1 mM DTE, 0.5 mM MnCI2, 20 mM MgCl2, 10% glycerol and 54 μM [1-3H]-GDP (specific activity 20 Ci/mol, American Radiolabeled Chemicals, St. Louis, Mo.). After incubation for 30 mm at […], 160 μl hexane was added to the tube, and vortexed briefly and centrifuged to separated the phases. The hexane layer was directly placed into a scintillation vial containing 2 ml of nonaqueous scintillation fluid (Econo-Safe, Research Products International, Mount Prospect Ill.). This extraction procedure was repeated twice and the total hexane phase was counted by Liquid Scintillation counter (LS-6500 model, Beckman Coulter, Fullerton, Calif.). Boiled enzyme extracts were used as controls.

[2] = Identification of enzymatic products of GES with GDP by SPME GC-MS; type: biochemical; details: SPME gas chromatogram of the reaction solution, peak identified by MS
Description: GES enzyme assays were also performed by adding 100 μl of enzyme solution with 900 μl assay solution containing 54 μM non-radioactive GDP (Echelon Research Laboratories, Salt Lake City, Utah) and the same buffer described above. The reactions were carried out in an 8 mL DuPont autosampler vial with a white solid-top polypropylene cap (Alltech, Deerfield, Ill.). After letting the reaction proceed for 2-4 hr at 32° C., the liberated compounds were collected with a solid-phase microextraction (SPME) device PDMS-100 with a polydimethylsiloxane fiber (Supelco, Bekkefonte, Pa.) by inserting the fiber into the tube and leaving it in for 20 mim at 42° C. After this incubation step, the solid-phase microextraction fiber was directly injected into the GC-MS.

Total activity ([1]; activity of the fraction after the named purification step): 337.2 ptat
B1: Superose12: geraniol synthase purified from basil glands after Superose 12 size exclusion chromatography (protein, UniProt Q6USK1 64-567, looked up)
Geraniol synthase, …: QHMEESSSKRREYLLEETTRKLQRNDTESVEKLKLIDNIQQLGIGYYFEDAINAVLRSPFSTGEEDLFTAALRFRLLRHNGIEISPEIFLKFKDERGKFDESDTLGLLSLYEASNLGVAGEEILEEAMEFAEARLRRSLSEPAAPLHGEVAQALDVPRHLRMARLEARRFIEQYGKQSDHDGDLLELAILDYNQVQAQHQSELTEIIRWWKELGLVDKLSFGRDRPLECFLWTVGLLPEPKYSSVRIELAKAISILLVIDDIFDTYGEMDDLILFTDAIRRWDLEAMEGLPEYMKICYMALYNTTNEVCYKVLRDTGRIVLLNLKSTWIDMIEGFMEEAKWFNGGSAPKLEEYIENGVSTAGAYMAFAHIFFLIGEGVTHQNSQLFTQKPYPKVFSAAGRILRLWDDLGTAKEEQERGDLASCVQLFMKEKSLTEEEARSRILEEIKGLWRDLNGELVYNKNLPLSIIKVALNMARASQVVYKHDQDTYFSSVDNYVDALFFTQ
Specific activity ([1]; activity per mg protein after the named purification step): 6244.2 pkat/mg
Products of the reaction catalyzed by purified GES with GDP [2]: Only a single peak was observed, identified as geraniol

— patent US8124375B2, “Geraniol synthase, methods of production and uses thereof” (The Regents Of The University Of Michigan, priority 2003, dated 2012)
